The values below come from paper PMC3526269, “Demethylation initiated by ROS1 glycosylase involves random sliding along DNA”.

Where a chain is given by its changes, count along the chain named.

In data set [1] the target is T1, FL-ROS1 (Arabidopsis, UniProt Q9SJQ6 1-1393).
T1 sequence: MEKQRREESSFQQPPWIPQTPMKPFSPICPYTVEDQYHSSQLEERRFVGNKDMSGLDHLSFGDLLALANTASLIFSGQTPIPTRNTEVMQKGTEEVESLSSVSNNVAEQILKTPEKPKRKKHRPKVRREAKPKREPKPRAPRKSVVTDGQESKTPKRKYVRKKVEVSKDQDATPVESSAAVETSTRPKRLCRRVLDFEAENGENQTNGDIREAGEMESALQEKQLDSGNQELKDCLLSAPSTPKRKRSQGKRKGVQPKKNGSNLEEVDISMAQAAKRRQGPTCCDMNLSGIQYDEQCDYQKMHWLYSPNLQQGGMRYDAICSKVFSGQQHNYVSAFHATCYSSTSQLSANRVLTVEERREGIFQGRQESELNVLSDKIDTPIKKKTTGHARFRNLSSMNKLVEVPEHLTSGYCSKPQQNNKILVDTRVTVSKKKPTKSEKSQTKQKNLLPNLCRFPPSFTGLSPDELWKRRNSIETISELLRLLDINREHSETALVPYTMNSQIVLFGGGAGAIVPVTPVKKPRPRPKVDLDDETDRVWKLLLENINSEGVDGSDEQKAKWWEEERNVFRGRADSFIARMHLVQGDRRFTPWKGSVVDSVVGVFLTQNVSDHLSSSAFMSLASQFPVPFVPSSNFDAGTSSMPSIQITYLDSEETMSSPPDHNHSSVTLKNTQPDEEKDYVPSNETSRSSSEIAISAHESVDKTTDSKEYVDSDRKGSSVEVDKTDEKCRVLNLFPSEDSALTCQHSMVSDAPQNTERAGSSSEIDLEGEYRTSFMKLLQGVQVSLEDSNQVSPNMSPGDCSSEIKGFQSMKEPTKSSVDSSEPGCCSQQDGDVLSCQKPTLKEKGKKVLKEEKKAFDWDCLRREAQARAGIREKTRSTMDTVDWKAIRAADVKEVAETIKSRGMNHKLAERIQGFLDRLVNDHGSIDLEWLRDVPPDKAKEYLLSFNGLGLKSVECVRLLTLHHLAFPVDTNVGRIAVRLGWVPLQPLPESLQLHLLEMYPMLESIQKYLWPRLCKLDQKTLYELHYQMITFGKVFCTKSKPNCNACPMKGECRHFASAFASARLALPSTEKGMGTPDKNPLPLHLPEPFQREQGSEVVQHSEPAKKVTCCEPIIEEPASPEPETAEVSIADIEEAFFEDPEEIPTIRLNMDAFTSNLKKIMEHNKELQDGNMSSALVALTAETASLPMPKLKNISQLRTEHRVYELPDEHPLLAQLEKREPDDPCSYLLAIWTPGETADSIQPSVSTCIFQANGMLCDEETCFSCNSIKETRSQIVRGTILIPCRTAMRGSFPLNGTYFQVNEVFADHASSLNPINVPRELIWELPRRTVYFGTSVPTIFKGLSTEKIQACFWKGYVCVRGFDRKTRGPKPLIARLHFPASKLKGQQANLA
The experiment in a line: EMSA; dissociates when chased with unlabelled S; EMSA: 10 nM (so in the source) Tris-HCl pH 8.0, 1 mM DTT, 10 ug/ml BSA, 1 mM EDTA, 25 C, 60 min; 100 nM probe; 0.2% agarose, 1x TAE. The conditions noted are these: protein: recombinant; tags: N-terminal His; label: 5'-fluorescein upper strand. In general terms: Mobility shift assays separate free from complexed probe on a gel.

Data set [2] concerns the target T2, NΔ294-ROS1 (Arabidopsis, UniProt Q9SJQ6 295-1393, del1-294).
T2 sequence: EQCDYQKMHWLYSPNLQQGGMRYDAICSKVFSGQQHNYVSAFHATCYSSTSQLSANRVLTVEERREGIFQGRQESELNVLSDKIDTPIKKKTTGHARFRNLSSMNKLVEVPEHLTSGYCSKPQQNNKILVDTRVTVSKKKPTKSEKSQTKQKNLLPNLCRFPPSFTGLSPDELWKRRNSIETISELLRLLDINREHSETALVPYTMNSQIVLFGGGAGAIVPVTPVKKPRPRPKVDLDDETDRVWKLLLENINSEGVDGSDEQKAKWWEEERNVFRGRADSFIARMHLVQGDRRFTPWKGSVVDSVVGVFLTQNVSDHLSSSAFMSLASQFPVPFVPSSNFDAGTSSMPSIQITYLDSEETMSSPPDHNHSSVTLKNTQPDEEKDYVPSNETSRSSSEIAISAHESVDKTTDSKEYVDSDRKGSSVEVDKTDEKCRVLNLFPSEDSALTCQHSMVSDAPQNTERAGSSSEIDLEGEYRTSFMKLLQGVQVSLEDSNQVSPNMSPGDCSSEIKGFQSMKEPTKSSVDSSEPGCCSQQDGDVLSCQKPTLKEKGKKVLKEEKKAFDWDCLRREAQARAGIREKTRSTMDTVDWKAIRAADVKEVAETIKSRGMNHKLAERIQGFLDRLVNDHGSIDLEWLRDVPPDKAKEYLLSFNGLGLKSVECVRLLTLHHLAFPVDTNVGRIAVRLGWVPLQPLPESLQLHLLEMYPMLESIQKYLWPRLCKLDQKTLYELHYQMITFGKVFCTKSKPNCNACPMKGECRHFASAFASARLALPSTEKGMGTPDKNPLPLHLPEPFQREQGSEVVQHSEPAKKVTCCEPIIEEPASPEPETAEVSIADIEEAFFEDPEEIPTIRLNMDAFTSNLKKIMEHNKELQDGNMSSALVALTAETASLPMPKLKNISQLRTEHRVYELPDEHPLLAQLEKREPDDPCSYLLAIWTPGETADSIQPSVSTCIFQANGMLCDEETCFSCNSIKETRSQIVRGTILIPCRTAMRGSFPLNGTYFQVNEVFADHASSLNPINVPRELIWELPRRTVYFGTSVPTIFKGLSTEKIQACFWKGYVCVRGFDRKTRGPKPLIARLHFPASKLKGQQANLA
The experiment in a line: EMSA; dissociates when chased with unlabelled S; needs higher protein than SL1-2; EMSA: 10 nM (so in the source) Tris-HCl pH 8.0, 1 mM DTT, 10 ug/ml BSA, 1 mM EDTA, 25 C, 60 min; 100 nM probe; 0.2% agarose, 1x TAE. The conditions noted are these: protein: recombinant; tags: N-terminal His; label: 5'-fluorescein upper strand.

For data set [3], the target named is T1, FL-ROS1. The experiment in a line: EMSA; low dissociation with competitor S, slightly higher than SL1-2; EMSA: 10 nM (so in the source) Tris-HCl pH 8.0, 1 mM DTT, 10 ug/ml BSA, 1 mM EDTA, 25 C, 60 min; 100 nM probe; 0.2% agarose, 1x TAE. The conditions noted are these: protein: recombinant, tags: N-terminal His, label: 5'-fluorescein upper strand, four-way junction obstacle.

Data set [4] concerns the target T2, NΔ294-ROS1. The experiment in a line: EMSA; easier to dissociate by competitor S than FL-ROS1; EMSA: 10 nM (so in the source) Tris-HCl pH 8.0, 1 mM DTT, 10 ug/ml BSA, 1 mM EDTA, 25 C, 60 min; 100 nM probe; 0.2% agarose, 1x TAE. The conditions noted are these: protein: recombinant, tags: N-terminal His, label: 5'-fluorescein upper strand, four-way junction obstacle.

For data set [5], the target named is T1, FL-ROS1. Kind of data set: EMSA; chase with competitor; similar to methylated SL1-2; EMSA: 10 nM (so in the source) Tris-HCl pH 8.0, 1 mM DTT, 10 ug/ml BSA, 1 mM EDTA, 25 C, 60 min; 100 nM probe; 0.2% agarose, 1x TAE. The conditions noted are these: protein: recombinant; tags: N-terminal His; label: 5'-fluorescein upper strand; four-way junction obstacles on both sides.

Data set [6] concerns the target T1, FL-ROS1. The experiment in a line: EMSA; dissociates when chased with mismatched S; EMSA: 10 nM (so in the source) Tris-HCl pH 8.0, 1 mM DTT, 10 ug/ml BSA, 1 mM EDTA, 25 C, 60 min; 100 nM probe; 0.2% agarose, 1x TAE. As to conditions: protein: recombinant; tags: N-terminal His; label: 5'-fluorescein upper strand; central T:G mispair.
Data set [7] deals with T1, FL-ROS1. The experiment in a line: EMSA; remains bound when chased with mismatched S; affinity not higher than for S; EMSA: 10 nM (so in the source) Tris-HCl pH 8.0, 1 mM DTT, 10 ug/ml BSA, 1 mM EDTA, 25 C, 60 min; 100 nM probe; 0.2% agarose, 1x TAE. As to conditions: protein: recombinant; tags: N-terminal His; label: 5'-fluorescein upper strand; four-way junction obstacles on both sides; central T:G mispair.

Data set [8] concerns the target T1, FL-ROS1. The experiment in a line: EMSA; chase with competitor; similar to methylated S; EMSA: 10 nM (so in the source) Tris-HCl pH 8.0, 1 mM DTT, 10 ug/ml BSA, 1 mM EDTA, 25 C, 60 min; 100 nM probe; 0.2% agarose, 1x TAE. The conditions noted are these: protein: recombinant; tags: N-terminal His; label: 5'-fluorescein upper strand.
In data set [9] the target is T1, FL-ROS1. The experiment in a line: EMSA; remains bound when chased with unlabelled S; affinity not higher than for S; EMSA: 10 nM (so in the source) Tris-HCl pH 8.0, 1 mM DTT, 10 ug/ml BSA, 1 mM EDTA, 25 C, 60 min; 100 nM probe; 0.2% agarose, 1x TAE. As to conditions: protein: recombinant; tags: N-terminal His; label: 5'-fluorescein upper strand; four-way junction obstacles on both sides.

For data set [10], the target named is T2, NΔ294-ROS1. The experiment in a line: EMSA; binds at lower concentration than to S; displaced at high competitor S; EMSA: 10 nM (so in the source) Tris-HCl pH 8.0, 1 mM DTT, 10 ug/ml BSA, 1 mM EDTA, 25 C, 60 min; 100 nM probe; 0.2% agarose, 1x TAE. As to conditions: protein: recombinant; tags: N-terminal His; label: 5'-fluorescein upper strand; four-way junction obstacles on both sides.

B1: S (5-meC:G) (dsDNA)
DNA 1: TCACGCGGGATCAATGTGTTCTTTCAGCTCCGGTCACGCTGACCAGGAATACCTCACTACC
DNA 2: GGTAGTGAGGTATTCCTGGTCAGCGTGACCGGAGCTGAAAGAACACATTGATCCCGCGTGA
modifications: one central 5-meC in CG context
Turning to B1, the binding result with FL-ROS1 [1] and with NΔ294-ROS1 [2] was “binds” each time.

B2: SL2 (5-meC:G) (dsDNA)
DNA 1: B1 DNA 1
DNA 2: GGTAGTGAGGTATTCCTGGTCAGCGTGACCGGAGCTGAAAGAACACCCGTAAGGGTCCGTAAGGACATTGATCCCGCGTGA
modifications: one central 5-meC in CG context
For B2, the binding result in the data set with FL-ROS1 [3] (right) and in the data set with NΔ294-ROS1 [4] (right) was “binds” each time.

B3: SL1-2 (homoduplex, no target) (dsDNA)
DNA 1: B1 DNA 1
DNA 2: GGTAGTGAGGTATTCCCCCGTAAGGGTCCGTAAGGATGGTCAGCGTGACCGGAGCTGAAAGAACACCCGTAAGGGTCCGTAAGGACATTGATCCCGCGTGA
Consider B3, for which the binding result with FL-ROS1 [5] is on record as “binds”.

B4: S (T:G) (dsDNA)
DNA 1: B1 DNA 1 with C31T
DNA 2: B1 DNA 2
For B4, in the data set with FL-ROS1 [6], the binding result is reported as “binds”.

B5: SL1 (5-meC:G) (dsDNA)
DNA 1: B1 DNA 1
DNA 2: GGTAGTGAGGTATTCCCCCGTAAGGGTCCGTAAGGATGGTCAGCGTGACCGGAGCTGAAAGAACACATTGATCCCGCGTGA
modifications: one central 5-meC in CG context
Turning to B5, the binding result with FL-ROS1 [3] (left) and in the data set with NΔ294-ROS1 [4] (left) was “binds” throughout.

B6: SL1-2 (T:G) (dsDNA)
DNA 1: B1 DNA 1 with C31T
DNA 2: B3 DNA 2
For B6, the binding result with FL-ROS1 [7] is reported as “binds”.

B7: S (homoduplex, no target) (dsDNA)
DNA 1: B1 DNA 1
DNA 2: B1 DNA 2
As to B7, the binding result in the data set with FL-ROS1 [8] is listed as “binds”.

B8: SL1-2 (5-meC:G) (dsDNA)
DNA 1: B1 DNA 1
DNA 2: B3 DNA 2
modifications: one central 5-meC in CG context
As for B8, the binding result with FL-ROS1 [9] and with NΔ294-ROS1 [10] was “binds” each time.
